Data on two substances can be found in paper PMC5873240.

The target of one assay is Kv7.2-hABCD. Briefly: NMR spectra.
A further assay addresses Kv7.2-hAB[Δ6L]. Briefly: NMR solution structure.

For the substance Kv7.2-hABCD (domain or fragment), the stoichiometry N in the assay with Kv7.2-hABCD is 4.

On to “calmodulin (from UniProt P0DP23 1-149) (natural protein)”, for which the stoichiometry N with Kv7.2-hAB[Δ6L] is 1.

For orientation: stoichiometry N means the number of molecules, sites or subunits per partner or assembly.
